Measured values: US20260115256A1 (HANGZHOU SCIWIND BIOSCIENCES, published 2026)
*1 amine or outer side, *2 acyl side, *3 side chain or, on linkers, in order; H or OH if unused. Bridges are numbered along the chain shown (N, C = ends). Where no end group is shown, it is not given here. Side-chain parts run from the residue outwards. [ ]: non-standard residue; d: D form. The star is where a group is joined. C20 diacid = O=C(O)CCCCCCCCCCCCCCCCCCC(=O)*; C18 diacid = O=C(O)CCCCCCCCCCCCCCCCC(=O)*; γGlu = O=C(O)[C@H](CCC(=O)[*:2])N[*:1]; Hyp = O=C(O)[C@@H]1C[C@@H](O)CN1; hArg = N=C(N)NCCCC[C@H](N)C(=O)O; Orn = NCCC[C@H](N)C(=O)O; Dab = NCC[C@H](N)C(=O)O; Dap = NC[C@H](N)C(=O)O; AEEA = NCCOCCOCC(=O)O

T1: human amylin receptor (AMY3) on CHO-K1/Ga15/AMY3 cells (human, UniProt P30988 25-474; O60896 24-148)
T1 sequence (looked up) 1: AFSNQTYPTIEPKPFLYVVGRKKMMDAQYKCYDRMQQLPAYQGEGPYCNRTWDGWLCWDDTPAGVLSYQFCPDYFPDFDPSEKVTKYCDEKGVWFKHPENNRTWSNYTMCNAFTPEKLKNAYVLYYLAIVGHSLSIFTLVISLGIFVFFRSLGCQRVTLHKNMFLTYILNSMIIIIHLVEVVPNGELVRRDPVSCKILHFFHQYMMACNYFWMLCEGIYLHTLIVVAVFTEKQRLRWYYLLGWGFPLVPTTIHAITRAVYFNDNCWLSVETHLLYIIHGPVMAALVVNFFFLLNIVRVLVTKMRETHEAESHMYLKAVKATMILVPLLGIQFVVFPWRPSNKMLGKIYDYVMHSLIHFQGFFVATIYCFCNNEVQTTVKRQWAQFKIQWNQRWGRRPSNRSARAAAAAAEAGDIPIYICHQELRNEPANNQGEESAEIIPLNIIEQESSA
T1 sequence (looked up) 2: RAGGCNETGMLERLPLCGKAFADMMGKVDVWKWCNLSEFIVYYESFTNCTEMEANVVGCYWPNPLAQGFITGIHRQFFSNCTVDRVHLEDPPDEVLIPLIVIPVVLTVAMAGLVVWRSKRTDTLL


The binders below were run against T1, human amylin receptor (AMY3) on … (assay: cell-based or functional assay).

Row | Binder | EC50, CRE-luciferase assay [nM]
1 | {C20 diacid-γGlu}-KCNTATCATQRLADFLRHSSNNLKPILPPTNVGSNT[Hyp]-NH2 (disulfide 2-7 (inferred)) [PD071] | 0.028
2 | K([γGlu-C20 diacid])CNTATCATQRLADFLRHSSNNLKPILPPTNVGSNT[Hyp]-NH2 (disulfide 2-7 (inferred)) [PD072] | 0.027
3 | [Dap]CNTATCATQRLADFLRHSSNNLK([γGlu-C20 diacid])PILPPTNVGSNT[Hyp]-NH2 (disulfide 2-7 (inferred)) [PD073] | 0.063
4 | [Dab]CNTATCATQRLADFLRHSSNNLK([γGlu-C20 diacid])PILPPTNVGSNT[Hyp]-NH2 (disulfide 2-7 (inferred)) [PD074] | 0.066
5 | [Orn]CNTATCATQRLADFLRHSSNNLK([γGlu-C20 diacid])PILPPTNVGSNT[Hyp]-NH2 (disulfide 2-7 (inferred)) [PD075] | 0.048
6 | KCNTATCATQRLADFLRHSSNNLK([γGlu-C20 diacid])PILPPTNVGSNT[Hyp]-NH2 (disulfide 2-7 (inferred)) [PD076] | 0.04
7 | [hArg]CNTATCATQRLADFLRHSSNNLK([γGlu-C20 diacid])PILPPTNVGSNT[Hyp]-NH2 (disulfide 2-7 (inferred)) [PD077] | 0.034
8 | HCNTATCATQRLADFLRHSSNNLK([γGlu-C20 diacid])PILPPTNVGSNT[Hyp]-NH2 (disulfide 2-7 (inferred)) [PD078] | 0.035
9 | DCNTATCATQRLADFLRHSSNNLK([γGlu-C20 diacid])PILPPTNVGSNT[Hyp]-NH2 (disulfide 2-7 (inferred)) [PD079] | 0.131
10 | RCNTATCATQRLAEFLRHSSK([γGlu-C20 diacid])NLGPILPPTNVGSNTP-NH2 (disulfide 2-7 (inferred)) [PD006] | 0.129
11 | ECNTATCATQRLADFLRHSSNNLK([γGlu-C20 diacid])PILPPTNVGSNT[Hyp]-NH2 (disulfide 2-7 (inferred)) [PD080] | 0.11
12 | RCNTATCATQRLADFLRHSSNNLK([AEEA-AEEA-γGlu-C20 diacid])PILPPTNVGSNT[Hyp]-NH2 (disulfide 2-7 (inferred)) [PD081] | 0.031
13 | RCNTATCATQRLADFLRHSSNNK([γGlu-C20 diacid])GPILPPTNVGSNT[Hyp]-NH2 (disulfide 2-7 (inferred)) [PD082] | 0.038
14 | RCNTATCATQRLADFLRHSSNNK([AEEA-AEEA-γGlu-C20 diacid])GPILPPTNVGSNT[Hyp]-NH2 (disulfide 2-7 (inferred)) [PD083] | 0.037
15 | RCNTATCATQRLADFLRHSSNNK([γGlu-C18 diacid])GPILPPTNVGSNT[Hyp]-NH2 (disulfide 2-7 (inferred)) [PD084] | 0.008
16 | RCNTATCATQRLADFLRHSSNNK([AEEA-AEEA-γGlu-C18 diacid])GPILPPTNVGSNT[Hyp]-NH2 (disulfide 2-7 (inferred)) [PD085] | 0.005
17 | RCNTATCATQRLADFLRHSSNK([γGlu-C20 diacid])LGPILPPTNVGSNT[Hyp]-NH2 (disulfide 2-7 (inferred)) [PD086] | 0.033
18 | RCNTATCATQRLADFLRHSSNK([AEEA-AEEA-γGlu-C20 diacid])LGPILPPTNVGSNT[Hyp]-NH2 (disulfide 2-7 (inferred)) [PD087] | 0.032

Row | Binder | EC50, CRE-luciferase assay [nM]
19 | RCNTATCATQRLADFLRHSSNK([γGlu-C18 diacid])LGPILPPTNVGSNT[Hyp]-NH2 (disulfide 2-7 (inferred)) [PD088] | 0.013
20 | RCNTATCATQRLADFLRHSSNK([AEEA-AEEA-γGlu-C18 diacid])LGPILPPTNVGSNT[Hyp]-NH2 (disulfide 2-7 (inferred)) [PD089] | 0.018
21 | RCNTATCATQRLAEFLRHSSNK([γGlu-C20 diacid])LGPILPPTNVGSNTP-NH2 (disulfide 2-7 (inferred)) [PD007] | 0.205
22 | RCNTATCATQRLADFLRHSSK([γGlu-C20 diacid])NLGPILPPTNVGSNT[Hyp]-NH2 (disulfide 2-7 (inferred)) [PD090] | 0.031
23 | RCNTATCATQRLADFLRHSSK([AEEA-AEEA-γGlu-C20 diacid])NLGPILPPTNVGSNT[Hyp]-NH2 (disulfide 2-7 (inferred)) [PD091] | 0.03
24 | RCNTATCATQRLADFLRHSSK([γGlu-C18 diacid])NLGPILPPTNVGSNT[Hyp]-NH2 (disulfide 2-7 (inferred)) [PD092] | 0.016
25 | RCNTATCATQRLADFLRHSSK([AEEA-AEEA-γGlu-C18 diacid])NLGPILPPTNVGSNT[Hyp]-NH2 (disulfide 2-7 (inferred)) [PD093] | 0.019
26 | RCNTATCATQRLADFLRHSK([γGlu-C20 diacid])NNLGPILPPTNVGSNT[Hyp]-NH2 (disulfide 2-7 (inferred)) [PD094] | 0.034
27 | RCNTATCATQRLADFLRHSK([AEEA-AEEA-γGlu-C20 diacid])NNLGPILPPTNVGSNT[Hyp]-NH2 (disulfide 2-7 (inferred)) [PD095] | 0.047
28 | RCNTATCATQRLADFLRHSK([γGlu-C18 diacid])NNLGPILPPTNVGSNT[Hyp]-NH2 (disulfide 2-7 (inferred)) [PD096] | 0.042
29 | RCNTATCATQRLADFLRHSK([AEEA-AEEA-γGlu-C18 diacid])NNLGPILPPTNVGSNT[Hyp]-NH2 (disulfide 2-7 (inferred)) [PD097] | 0.014
30 | RCNTATCATQRLADFLRHK([γGlu-C20 diacid])SNNLGPILPPTNVGSNT[Hyp]-NH2 (disulfide 2-7 (inferred)) [PD098] | 0.077
31 | RCNTATCATQRLADFLRHK([AEEA-AEEA-γGlu-C20 diacid])SNNLGPILPPTNVGSNT[Hyp]-NH2 (disulfide 2-7 (inferred)) [PD099] | 0.033
32 | RCNTATCATQRLAEFLRHSSNNK([γGlu-C20 diacid])GPILPPTNVGSNTP-NH2 (disulfide 2-7 (inferred)) [PD008] | 0.281
33 | RCNTATCATQRLADFLRHK([γGlu-C18 diacid])SNNLGPILPPTNVGSNT[Hyp]-NH2 (disulfide 2-7 (inferred)) [PD100] | 0.06
34 | RCNTATCATQRLADFLRHK([AEEA-AEEA-γGlu-C18 diacid])SNNLGPILPPTNVGSNT[Hyp]-NH2 (disulfide 2-7 (inferred)) [PD101] | 0.012
35 | RCNTATCATQRLADFLRHSSNNLGK([γGlu-C20 diacid])ILPPTNVGSNT[Hyp]-NH2 (disulfide 2-7 (inferred)) [PD102] | 0.033
